EC50 data for two molecules are collected here from paper PMC5573810 (2017).

Common to all, as to assay: ELISA
Assay [1] has as its target N332 nanoparticle (1GUT_A_ES-FR).
For assay [2], the target named is clade-C (ZM109) V1V2-ferritin nanoparticle (V1V2-FR) (HIV-1 ZM109 (clade C) | ).
The target in assay [3] is gp120-ferritin (gp120-FR) nanoparticle.

B1: PGT133 (antibody, V domains shown)
VH: QVHLQESGPGLVTPSETLSLTCTVSNGSVSGRFWSWIRQSPGRGLEWIGYFSDTDRSEYNPSLRSRLTLSVDRSKNQLSLRLKSVTAADSATYYCARAQQGKRIYGIVSFGEFFYYYYMDAWGKGTPVTVSS
VL: LSLAPGATAKIPCGERSRGSRAVQWYQQKPGQAPTLIIYNNQDRPAGVSERFSGNPDVAIGVTATLTISRVEVGDEADYYCHYWDSRSPISWIFGGGTQLTVL
Turning to B1, the EC50 (in general, the concentration at which the effect is half-maximal) amounted to 0.024 µg/mL in assay [1], 0.26 µg/mL in assay [2] and 0.042 µg/mL in assay [3].

B2: PGT124 (antibody, V domains shown)
VH: QVQLQESGPGLVRPSETLSVTCIVSGGSISNYYWTWIRQSPGKGLEWIGYISDRETTTYNPSLNSRAVISRDTSKNQLSLQLRSVTTADTAIYFCATARRGQRIYGVVSFGEFFYYYYMDVWGKGTAVTVSS
VL: SYVSPLSVALGETARISCGRQALGSRAVQWYQHKPGQAPILLIYNNQDRPSGIPERFSGTPDINFGTTATLTISGVEVGDEADYYCHMWDSRSGFSWSFGGATRLTVL
B2: the EC50 in assay [1] was found to be 0.03 µg/mL; in assay [3], 0.026 µg/mL.
